Source: patent US20250361274A1, “PEPTIDE AND PEPTIDE-CONTAINING AGENT” (PEPTIDREAM INC., priority 2022, published 2025)
Numbered stars: 1 amine (or outer) side, 2 acyl side, 3 side chain; on linkers, the order of the positions; unused ones are H or OH. Bridge positions count the residues as written; N and C are the ends. Square brackets hold non-standard residues; d marks the D form. KCOpipzaa = N6-(4-(carboxymethyl)piperazine-1-carbonyl)-L-lysine, O=C(NCCCC[C@H](N[*:1])C(=O)[*:2])N1CCN(CC(=O)[*:3])CC1; 3Pal(6-Ph) = N[C@@H](Cc1ccc(-c2ccccc2)nc1)C(=O)O; Phe(4-COOH) = N[C@@H](Cc1ccc(C(=O)O)cc1)C(=O)O; Bip = N[C@@H](Cc1ccc(-c2ccccc2)cc1)C(=O)O; 3Pal(6-NH2) = Nc1ccc(C[C@H](N)C(=O)O)cn1; Aad = N[C@@H](CCCC(=O)O)C(=O)O; βAla = NCCC(=O)O

Tests used:
BMP4 = target: T1, BMP4 (Homo sapiens, UniProt P12644); assay: BMP4 signal transduction inhibitory activity: SMAD1 phosphorylation by BMP4 stimulus, AlphaLISA SureFire, A549 cells; type: cell-based; conditions: inhibition of SMAD1 phosphorylation by BMP4 stimulus, A549 cells, ND
T1 sequence (P12644 293-408): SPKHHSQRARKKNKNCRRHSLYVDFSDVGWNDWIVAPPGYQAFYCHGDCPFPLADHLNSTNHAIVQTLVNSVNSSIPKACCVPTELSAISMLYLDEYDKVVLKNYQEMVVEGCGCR

BMP7 = target: T2, BMP7 (Homo sapiens, UniProt P18075); assay: BMP7 signal transduction inhibitory activity: SMAD1 phosphorylation by BMP7 stimulus, A549 cells; type: cell-based; conditions: inhibition of SMAD1 phosphorylation by BMP7 stimulus, A549 cells, ND
T2 sequence (P18075 293-431): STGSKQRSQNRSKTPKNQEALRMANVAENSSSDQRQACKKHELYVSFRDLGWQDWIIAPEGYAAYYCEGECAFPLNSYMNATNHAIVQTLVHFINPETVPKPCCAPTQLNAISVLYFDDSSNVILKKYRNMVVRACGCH
In short: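 A549 cells were stimulated with 10 nM BMP7, and the read-out was SMAD1 phosphorylation. Peptides were tested at three concentrations spanning 1 to 1,000 nM, with sets depending on the peptide series. Some peptides were run in eight-point 1/3 dilutions starting from 100 nM or 1,000 nM, with recombinant human Noggin as positive control at matching concentrations.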

[1] = peptides of Synthesis 2, classes A-C
[2] = peptides of Synthesis 2, classes A-D
[3] = peptides of Synthesis 1, classes D-F
[4] = peptides of Synthesis 1, classes E, F

Row | Substance | aLISA BMP4 (BMP4; [1]) | aLISA BMP7 (BMP7; [2]) | aLISA BMP4 (BMP4; [3]) | aLISA BMP7 (BMP7; [4])
1 | 114 (EKVYVKRFPYPFYFFSCG; not fully specified; MOD_RES 2 K represents N6-(4-(Carboxymethyl) piperazine-1-carbonyl)-L-lysine(KCOpipzaa); MOD_RES 6 K represents N6-(4-(Carboxymethyl) piperazine-1-carbonyl)-L-lysine(KCOpipzaa); MOD_RES 8 F represents (S)-3-(1,1'-Biphenyl-4-yl)-2-aminopropanoic acid(Bph); MOD_RES 12 F represents (S)-3-(1,1'-Biphenyl-4-yl)-2-aminopropanoic acid(Bph); MOD_RES 14 F represents (S)-4-(2-amino-2-carboxyethyl)benzoic aci) [compound 114] | A (showed an inhibitory activity of 50% or more in a zone to which the peptide was added to in an amount of 0.2 nM) | C (showed less than 50% of inhibitory activity in 10 nM-addition zone and showed 50% or more of inhibitory activity in 100 nM-addition zone) | – | –
2 | 115 (EKVYVKRFPYPFYFFSCG; not fully specified; MOD_RES 2 K represents N6-(4-(Carboxymethyl) piperazine-1-carbonyl)-L-lysine(KCOpipzaa); MOD_RES 6 K represents N6-(4-(Carboxymethyl) piperazine-1-carbonyl)-L-lysine(KCOpipzaa); MOD_RES 8 F represents (S)-3-(1,1'-Biphenyl-4-yl)-2-aminopropanoic acid(Bph); MOD_RES 12 F represents (S)-3-(1,1'-Biphenyl-4-yl)-2-aminopropanoic acid(Bph); MOD_RES 14 F represents (S)-4-(2-amino-2-carboxyethyl)benzoic aci) [compound 115] | A (showed an inhibitory activity of 50% or more in a zone to which the peptide was added to in an amount of 0.2 nM) | C (showed less than 50% of inhibitory activity in 10 nM-addition zone and showed 50% or more of inhibitory activity in 100 nM-addition zone) | – | –
3 | 116 (EKVYVKRFPYPFYFFSCA; not fully specified; MOD_RES 2 K represents N6-(4-(Carboxymethyl) piperazine-1-carbonyl)-L-lysine(KCOpipzaa); MOD_RES 6 K represents N6-(4-(Carboxymethyl) piperazine-1-carbonyl)-L-lysine(KCOpipzaa); MOD_RES 8 F represents (S)-3-(1,1'-Biphenyl-4-yl)-2-aminopropanoic acid(Bph); MOD_RES 12 F represents (S)-3-(1,1'-Biphenyl-4-yl)-2-aminopropanoic acid(Bph); MOD_RES 14 F represents (S)-4-(2-amino-2-carboxyethyl)benzoic aci) [compound 116] | A (showed an inhibitory activity of 50% or more in a zone to which the peptide was added to in an amount of 0.2 nM) | C (showed less than 50% of inhibitory activity in 10 nM-addition zone and showed 50% or more of inhibitory activity in 100 nM-addition zone) | – | –
4 | 117 (EKVYVKRFPYPFYFFSCAE; not fully specified; MOD_RES 2 K represents N6-(4-(Carboxymethyl) piperazine-1-carbonyl)-L-lysine(KCOpipzaa); MOD_RES 6 K represents N6-(4-(Carboxymethyl) piperazine-1-carbonyl)-L-lysine(KCOpipzaa); MOD_RES 8 F represents (S)-3-(1,1'-Biphenyl-4-yl)-2-aminopropanoic acid(Bph); MOD_RES 12 F represents (S)-3-(1,1'-Biphenyl-4-yl)-2-aminopropanoic acid(Bph); MOD_RES 14 F represents (S)-4-(2-amino-2-carboxyethyl)benzoic aci) [compound 117] | C (showed an inhibitory activity of less than 50% in 0.2 nM-addition zone and showed an inhibitory activity of 50% or more in 2 nM-addition zone were defined as B or C) | C (showed less than 50% of inhibitory activity in 10 nM-addition zone and showed 50% or more of inhibitory activity in 100 nM-addition zone) | – | –
5 | 118 (EKVYVKRFPYPFYFFSCAE; not fully specified; MOD_RES 2 K represents N6-(4-(Carboxymethyl) piperazine-1-carbonyl)-L-lysine(KCOpipzaa); MOD_RES 6 K represents N6-(4-(Carboxymethyl) piperazine-1-carbonyl)-L-lysine(KCOpipzaa); MOD_RES 8 F represents (S)-3-(1,1'-Biphenyl-4-yl)-2-aminopropanoic acid(Bph); MOD_RES 12 F represents (S)-3-(1,1'-Biphenyl-4-yl)-2-aminopropanoic acid(Bph); MOD_RES 14 F represents (S)-4-(2-amino-2-carboxyethyl)benzoic aci) [compound 118] | A (showed an inhibitory activity of 50% or more in a zone to which the peptide was added to in an amount of 0.2 nM) | C (showed less than 50% of inhibitory activity in 10 nM-addition zone and showed 50% or more of inhibitory activity in 100 nM-addition zone) | – | –
6 | 120 ({CH2CO}-E[KCOpipzaa]VYV[KCOpipzaa]R[3Pal(6-Ph)]SYP[Bip]Y[Phe(4-COOH)][Phe(4-COOH)]SCG-NH2; thioether N-17; not fully specified) [compound 120] | A (showed an inhibitory activity of 50% or more in a zone to which the peptide was added to in an amount of 0.2 nM) | ND (the inhibitory activity was less than 30% at the maximum concentration evaluated) | – | –
7 | 121 ({CH2CO}-ERV[Phe(4-COOH)]VDR[Bip]PYP[Bip]Y[Phe(4-COOH)][Phe(4-COOH)]SC[βAla][dE]-OH; thioether N-17; not fully specified) [compound 121] | A (showed an inhibitory activity of 50% or more in a zone to which the peptide was added to in an amount of 0.2 nM) | B (showed less than 50% of inhibitory activity in 1 nM-addition zone and showed 50% or more of inhibitory activity in 10 nM-addition zone) | – | –
8 | 122 ({CH2CO}-ERV[Phe(4-COOH)]V[KCOpipzaa]R[Bip]PYP[Bip]Y[Phe(4-COOH)][Phe(4-COOH)]SC[βAla][dE]-OH; thioether N-17; not fully specified) [compound 122] | A (showed an inhibitory activity of 50% or more in a zone to which the peptide was added to in an amount of 0.2 nM) | C (showed less than 50% of inhibitory activity in 10 nM-addition zone and showed 50% or more of inhibitory activity in 100 nM-addition zone) | – | –
9 | 123 ({CH2CO}-ERV[Phe(4-COOH)]V[KCOpipzaa]R[Bip]PYV[Bip]Y[Phe(4-COOH)][Phe(4-COOH)]SC[βAla][dE]-OH; thioether N-17; not fully specified) [compound 123] | A (showed an inhibitory activity of 50% or more in a zone to which the peptide was added to in an amount of 0.2 nM) | C (showed less than 50% of inhibitory activity in 10 nM-addition zone and showed 50% or more of inhibitory activity in 100 nM-addition zone) | – | –
10 | 124 ({CH2CO}-ERV[Phe(4-COOH)]V[KCOpipzaa]R[Bip]SYV[Bip]Y[Phe(4-COOH)][Phe(4-COOH)]SC[βAla][dE]-OH; thioether N-17; not fully specified) [compound 124] | A (showed an inhibitory activity of 50% or more in a zone to which the peptide was added to in an amount of 0.2 nM) | C (showed less than 50% of inhibitory activity in 10 nM-addition zone and showed 50% or more of inhibitory activity in 100 nM-addition zone) | – | –
11 | 125 ({CH2CO}-E[Aad]VYVDR[Bip]PYV[Bip]Y[Phe(4-COOH)][Phe(4-COOH)]SCG-NH2; thioether N-17; not fully specified) [compound 125] | – | – | E (showed less than 50% of inhibitory activity in 0.2 nM-addition zone and showed 50% or more of inhibitory activity in 2 nM-addition zone) | E (showed 50% or more of inhibitory activity in a zone to which the peptide was added in an amount of 10 nM)
12 | 131 ({CH2CO}-ERVYDDR[Bip]PYV[Bip]Y[Phe(4-COOH)][Phe(4-COOH)]SCG-NH2; thioether N-17; not fully specified) [compound 131] | – | – | D (showed 50% or more of inhibitory activity in 0.2 nM-addition zone) | F (showed less than 50% of inhibitory activity in 10 nM-addition zone and showed 50% or more of inhibitory activity in 100 nM-addition zone)
13 | 132 ({CH2CO}-ERVYVSR[Bip]PYV[Bip]Y[Phe(4-COOH)][Phe(4-COOH)]SCG-NH2; thioether N-17; not fully specified) [compound 132] | – | – | E (showed less than 50% of inhibitory activity in 0.2 nM-addition zone and showed 50% or more of inhibitory activity in 2 nM-addition zone) | ND (the inhibitory activity was less than 30% at the maximum concentration evaluated)
14 | 133 ({CH2CO}-ERVYVD[3Pal(6-NH2)][Bip]PYV[Bip]Y[Phe(4-COOH)][Phe(4-COOH)]SCG-NH2; thioether N-17; not fully specified) [compound 133] | – | – | E (showed less than 50% of inhibitory activity in 0.2 nM-addition zone and showed 50% or more of inhibitory activity in 2 nM-addition zone) | E (showed 50% or more of inhibitory activity in a zone to which the peptide was added in an amount of 10 nM)
